Test results published in article PMC11347170, “Staphylococcal exoribonuclease YhaM destabilizes ribosomes by targeting the mRNA of a hibernation factor”.

Target: YhaM D193A (Staphylococcus aureus JE2 (USA300), UniProt A0A0H2XHZ3 1-313, D193A)
Test: EMSA; 1 mM Mn2+; 15 nM RNA, 0-30 uM YhaM; partial RNA degradation at high protein; EMSA: 50 mM Na-Tricine pH 8.0, 100 mM KCl, 1 mM MnSO4, 37 C 20 min, 20% TBE native gel
Conditions: protein: recombinant; tags: N-terminal His6 (pMCSG7); label: 5'-6-FAM; single strand

## AGGAAAAAACAUUUUAUAAAGGAGA (ssRNA) [RNA_a]
  binding result: binds
